B1: OAS1 (parent)
chain: LQLGEGVEFDVLPAFDALGQLTGG
B2: EMID1 (parent)
chain: FTETNNHWPQGPTGPPGPPGPMGP
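Also: lentivirally expressed fusions sorted by FACS into six bins by GFP to DsRed ratio, PSI derived from sequencing read proportions per bin multiplied by bin number.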

Variants of: B1
Experiment: protein stability index of a GFP-peptide fusion (GPS, HEK-293T) (PSI 1-6); higher = more stable
Conditions: c terminus: a fixed tail appended
Work on LQLGEGVEFDVLPAFDALGQLTLG yielded a protein stability index of 1.4. Work on LQLGEGVEFDVLPAFDALGQLTEG yielded a protein stability index of 2.26. LQLGEGVEFDVLPAFDALGQLTQG gave a protein stability index of 2.58. In the case of LQLGEGVEFDVLPAFDALGQLTKG, the protein stability index is reported as 2.13. LQLGEGVEFDVLPAFDALGQLTIG gave a protein stability index of 1.19. Work on LQLGEGVEFDVLPAFDALGQLTRG yielded a protein stability index of 2.68. With LQLGEGVEFDVLPAFDALGQLTHG the protein stability index was 1.58. Work on LQLGEGVEFDVLPAFDALGQLTMG yielded a protein stability index of 1.13. Work on LQLGEGVEFDVLPAFDALGQLFGG yielded a protein stability index of 2.69. In the case of LQLGEGVEFDVLPAFDALGQLNGG, the protein stability index is reported as 1.49. Variant LQLGEGVEFDVLPAFDALGQLQGG has a protein stability index of 1.14. With LQLGEGVEFDVLPAFDALGQLSGG the protein stability index was 1.73. LQLGEGVEFDVLPAFDALGQLGGG showed a protein stability index of 2.05. Work on LQLGEGVEFDVLPAFDALGQLYGG yielded a protein stability index of 1.08. In the case of LQLGEGVEFDVLPAFDALGQLVGG, the protein stability index is reported as 1.86. LQLGEGVEFDVLPAFDALGQLPGG showed a protein stability index of 1.9. LQLGEGVEFDVLPAFDALGQLEGG gave a protein stability index of 2.75. In the case of LQLGEGVEFDVLPAFDALGQLMGG, the protein stability index is reported as 1.07. In the case of LQLGEGVEFDVLPAFDALGQLKGG, the protein stability index is reported as 2.04. For LQLGEGVEFDVLPAFDALGQLHGG, the protein stability index was 2.06. LQLGEGVEFDVLPAFDALGQLTGW showed a protein stability index of 1.45. For LQLGEGVEFDVLPAFDALGQLTGE, the protein stability index was 2.31. In the case of LQLGEGVEFDVLPAFDALGQLTGN, the protein stability index is reported as 1.5. In the case of LQLGEGVEFDVLPAFDALGQLTGQ, the protein stability index is reported as 1.98. Work on LQLGEGVEFDVLPAFDALGQLTGF yielded a protein stability index of 1.17. LQLGEGVEFDVLPAFDALGQLTGH showed a protein stability index of 3.16. Work on LQLGEGVEFDVLPAFDALGQLTGT yielded a protein stability index of 1.48. Work on LQLGEGVEFDVLPAFDALGQLTGP yielded a protein stability index of 1.64. In the case of LQLGEGVEFDVLPAFDALGQLTGY, the protein stability index is reported as 2.55. For LQLGEGVEFDVLPAFDALGQLTGK, the protein stability index was 2.49. For LQLGEGVEFDVLPAFDALGQLTGI, the protein stability index was 3.05. Variant LQLGEGVEFDVLPAFDALGQLTGD has a protein stability index of 1.94. For LQLGEGVEFDVLPAFDALGQLTGS, the protein stability index was 1.81.

Variants of: B2
Experiment: as above
Conditions: c terminus: a fixed tail appended
With FTETNNHWPQGPTGPPGPYGPMGP the protein stability index was 1.36. FTETNNHWPQGPTGPPGPSGPMGP showed a protein stability index of 2. For FTETNNHWPQGPTGPPGPNGPMGP, the protein stability index was 1.8. Work on FTETNNHWPQGPTGPPGPMGPMGP yielded a protein stability index of 1.93. With FTETNNHWPQGPTGPPGPFGPMGP the protein stability index was 1.79. With FTETNNHWPQGPTGPPGPGGPMGP the protein stability index was 2.79. With FTETNNHWPQGPTGPPGPLGPMGP the protein stability index was 2.41. Work on FTETNNHWPQGPTGPPGPDGPMGP yielded a protein stability index of 2.68. Variant FTETNNHWPQGPTGPPGPVGPMGP has a protein stability index of 1.89. Variant FTETNNHWPQGPTGPPGPEGPMGP has a protein stability index of 2.19. Variant FTETNNHWPQGPTGPPGPIGPMGP has a protein stability index of 2.72. Variant FTETNNHWPQGPTGPPGPKGPMGP has a protein stability index of 1.94. In the case of FTETNNHWPQGPTGPPGGPGPMGP, the protein stability index is reported as 1.82. FTETNNHWPQGPTGPPGRPGPMGP gave a protein stability index of 2.56. FTETNNHWPQGPTGPPGVPGPMGP gave a protein stability index of 2.37. In the case of FTETNNHWPQGPTGPPGWPGPMGP, the protein stability index is reported as 2.55. FTETNNHWPQGPTGPPGLPGPMGP gave a protein stability index of 2.17. Variant FTETNNHWPQGPTGPPGDPGPMGP has a protein stability index of 2.68. In the case of FTETNNHWPQGPTGPPGQPGPMGP, the protein stability index is reported as 1.93. In the case of FTETNNHWPQGPTGPPGCPGPMGP, the protein stability index is reported as 1.53. Work on FTETNNHWPQGPTGPPGSPGPMGP yielded a protein stability index of 2.45. In the case of FTETNNHWPQGPTGPPGYPGPMGP, the protein stability index is reported as 2.33. Work on FTETNNHWPQGPTGPPGMPGPMGP yielded a protein stability index of 1.68. For FTETNNHWPQGPTGPPGEPGPMGP, the protein stability index was 2.11. Work on FTETNNHWPQGPTGPPGKPGPMGP yielded a protein stability index of 2.51. FTETNNHWPQGPTGPPGIPGPMGP showed a protein stability index of 1.93. Work on FTETNNHWPQGPTGPPGFPGPMGP yielded a protein stability index of 2. With FTETNNHWPQGPTGPPGNPGPMGP the protein stability index was 1.47. In the case of FTETNNHWPQGPTGPDGPPGPMGP, the protein stability index is reported as 2.56. Work on FTETNNHWPQGPTGPNGPPGPMGP yielded a protein stability index of 2.23. Variant FTETNNHWPQGPTGPLGPPGPMGP has a protein stability index of 2.14. Variant FTETNNHWPQGPTGPIGPPGPMGP has a protein stability index of 2.33. FTETNNHWPQGPTGPTGPPGPMGP showed a protein stability index of 2.58. FTETNNHWPQGPTGPRGPPGPMGP gave a protein stability index of 2.52. In the case of FTETNNHWPQGPTGPCGPPGPMGP, the protein stability index is reported as 2.5. For FTETNNHWPQGPTGPMGPPGPMGP, the protein stability index was 2.47. In the case of FTETNNHWPQGPTGPAGPPGPMGP, the protein stability index is reported as 2.65. For FTETNNHWPQGPTGPSGPPGPMGP, the protein stability index was 2.1. Variant FTETNNHWPQGPTGPYGPPGPMGP has a protein stability index of 2.07. With FTETNNHWPQGPTGPGGPPGPMGP the protein stability index was 2.4. Work on FTETNNHWPQGPTGPVGPPGPMGP yielded a protein stability index of 3.19. For FTETNNHWPQGPTGPKGPPGPMGP, the protein stability index was 1.83. With FTETNNHWPQGPTGPEGPPGPMGP the protein stability index was 2.54. With FTETNNHWPQGPTGPFGPPGPMGP the protein stability index was 2.02. In the case of FTETNNHWPQGPTGHPGPPGPMGP, the protein stability index is reported as 2.62. FTETNNHWPQGPTGGPGPPGPMGP gave a protein stability index of 2.44. FTETNNHWPQGPTGRPGPPGPMGP showed a protein stability index of 1.69. For FTETNNHWPQGPTGNPGPPGPMGP, the protein stability index was 2.25. FTETNNHWPQGPTGEPGPPGPMGP showed a protein stability index of 2.66. Work on FTETNNHWPQGPTGYPGPPGPMGP yielded a protein stability index of 2.58. FTETNNHWPQGPTGSPGPPGPMGP showed a protein stability index of 2.88. With FTETNNHWPQGPTGMPGPPGPMGP the protein stability index was 2.02. With FTETNNHWPQGPTGWPGPPGPMGP the protein stability index was 1.75. Variant FTETNNHWPQGPTGDPGPPGPMGP has a protein stability index of 2.15. For FTETNNHWPQGPTGVPGPPGPMGP, the protein stability index was 1.93. In the case of FTETNNHWPQGPTGFPGPPGPMGP, the protein stability index is reported as 2.11. In the case of FTETNNHWPQGPTGLPGPPGPMGP, the protein stability index is reported as 2.34. Variant FTETNNHWPQGPTGQPGPPGPMGP has a protein stability index of 2.21. Variant FTETNNHWPQGPTGIPGPPGPMGP has a protein stability index of 2.24. FTETNNHWPQGPTGKPGPPGPMGP showed a protein stability index of 2.27. Variant FTETNNHWPQGPTGCPGPPGPMGP has a protein stability index of 2.68.

From the supplement of paper PMC10567573
